The assay relates to HEK293FT cells transfected with TF library. Put plainly: Screening of TF condensates based on fluorescent puncta. The note with it: Figure 1B numerical data; TF library screen, one value per transcriptional factor. The class given is cell-based. A digest of the protocol: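 Puncta scoring used automated confocal imaging of fifty random fields per well, after anti-Flag or anti-GAL4 immunofluorescence (Alexa 488) in PFA-fixed cells. HEK293FT cells carried TF library plasmids delivered with PEI (1.6 μg/ml DNA). At 60 h they were switched for 12 h to glucose-containing or glucose-free medium.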

B1: TERF2 (protein, UniProt O35144 1-541, looked up)
Telomeric repeat-binding …: MAAGAGTAGPASGPGVVRDPMASQPRKRPSREGGEGGEGERRSNTMAGGGGSSDSSGRAASRRASRSGGRARRGRHEPGLGGAAERGAGEARLEEAVNRWVLKFYFHEALRAFRSSRYRDFRQIRDIMQALLVRPLGKEHTVSRLLRVMQCLSRIEEGENLDCSFDMEAELTPLESAINVLEMIKTEFTLTDSMVESSRKLVKEAAVIICIKNKEFEKASKILKKYMSKDPTTQKLRTDLLNIIREKNLAHPVIQNFSYEVFQQKMLRFLESHLDDTEPYLLTMAKKALKSESAASSTMREEKHPEPVEKPLREPPSRQPQNPPATIGIRTLKAAFKALSTAQDSEAAFAKLDQKDLVLANLASPSSPAHKHKRPRKDEHESAAPAEGEGGSDRQPRNSPMTISRLLLEEDSQSTEPSPGLNSSHKAMSASKPRALNQPHPGEKKPKASKDKWNSPNGLEEKEVWLEEDQLFEVQAPGEDRSSSLTRKQKWTIEESEWVKDGVRKYGEGNWAAISKSYPFVNRTAVMIKDRWRTMKKLGMN
As to B1, the “Z score of condensed fraction” value is 0.4642.

B2: TFDP3 (protein, UniProt Q5H9I0 1-405, looked up)
Transcription factor Dp …: MAKYVSLTEANEELKVLMDENQTSRPVAVHTSTVNPLGKQLLPKTFGQSSVNIDQQVVIGMPQRPAASNIPVVGSPNPPSTHFASQNQHSYSSPPWAGQHNRKGEKNGMGLCRLSMKVWETVQRKGTTSCQEVVGELVAKFRAASNHASPNESAYDVKNIKRRTYDALNVLMAMNIISREKKKIKWIGLTTNSAQNCQNLRVERQKRLERIKQKQSELQQLILQQIAFKNLVLRNQYVEEQVSQRPLPNSVIHVPFIIISSSKKTVINCSISDDKSEYLFKFNSSFEIHDDTEVLMWMGMTFGLESGSCSAEDLKMARNLVPKALEPYVTEMAQGTFGGVFTTAGSRSNGTWLSASDLTNIAIGMLATSSGGSQYSGSRVETPAVEEEEEEDNNDDDLSENDEDD
On to B2, for which the “Z score of condensed fraction” value was 0.6635.

B3: TFEC (protein, UniProt O14948 1-347, looked up)
Transcription factor EC: MTLDHQIINPTLKWSQPAVPSGGPLVQHAHTTLDSDAGLTENPLTKLLAIGKEDDNAQWHMEDVIEDIIGMESSFKEEGADSPLLMQRTLSGSILDVYSGEQGISPINMGLTSASCPSSLPMKREITETDTRALAKERQKKDNHNLIERRRRYNINYRIKELGTLIPKSNDPDMRWNKGTILKASVEYIKWLQKEQQRARELEHRQKKLEQANRRLLLRIQELEIQARTHGLPTLASLGTVDLGAHVTKQQSHPEQNSVDYCQQLTVSQGPSPELCDQAIAFSDPLSYFTDLSFSAALKEEQRLDGMLLDDTISPFGTDPLLSATSPAVSKESSRRSSFSSDDGDEL
For the molecule B3, the “Z score of condensed fraction” value turned out to be 1.616.

B4: BLZF1 (protein, UniProt Q9H2G9 1-400, looked up)
Golgin-45: MTTKNLETKVTVTSSPIRGAGDGMETEEPPKSVEVTSGVQSRKHHSLQSPWKKAVPSESPGVLQLGKMLTEKAMEVKAVRILVPKAAITHDIPNKNTKVKSLGHHKGEFLGQSEGVIEPNKELSEVKNVLEKLKNSERRLLQDKEGLSNQLRVQTEVNRELKKLLVASVGDDLQYHFERLAREKNQLILENEALGRNTAQLSEQLERMSIQCDVWRSKFLASRVMADELTNSRAALQRQNRDAHGAIQDLLSEREQFRQEMIATQKLLEELLVSLQWGREQTYSPSVQPHSTAELALTNHKLAKAVNSHLLGNVGINNQKKIPSTVEFCSTPAEKMAETVLRILDPVTCKESSPDNPFFESSPTTLLATKKNIGRFHPYTRYENITFNCCNHCRGELIAL
For B4, the “Z score of condensed fraction” value is -1.161.

B5: TGIF2LY (protein, UniProt Q8IUE0 1-185, looked up)
Homeobox protein TGIF2LY: MEAAADGPAETQSPVEKDSPAKTQSPAQDTSIMSRNNADTGRVLALPEHKKKRKGNLPAESVKILRDWMYKHRFKAYPSEEEKQMLSEKTNLSLLRISNWFINARRRILPDMLQQRRNDPIIGHKTGKDAHATHLQSTEASVPAKSGPVVQTMYKACPCGPCQRARCQERSNQIRSRPLARSSPE
As for B5, the “Z score of condensed fraction” value came to 1.271.

B6: TBX6 (protein, UniProt O95947 1-436, looked up)
T-box transcription factor …: MYHPRELYPSLGAGYRLGPAQPGADSSFPPALAEGYRYPELDTPKLDCFLSGMEAAPRTLAAHPPLPLLPPAMGTEPAPSAPEALHSLPGVSLSLENRELWKEFSSVGTEMIITKAGRRMFPACRVSVTGLDPEARYLFLLDVIPVDGARYRWQGRRWEPSGKAEPRLPDRVYIHPDSPATGAHWMRQPVSFHRVKLTNSTLDPHGHLILHSMHKYQPRIHLVRAAQLCSQHWGGMASFRFPETTFISVTAYQNPQITQLKIAANPFAKGFRENGRNCKRERDARVKRKLRGPEPAATEAYGSGDTPGGPCDSTLGGDIRESDPEQAPAPGEATAAPAPLCGGPSAEAYLLHPAAFHGAPSHLPTRSPSFPEAPDSGRSAPYSAAFLELPHGSGGSGYPAAPPAVPFAPHFLQGGPFPLPYTAPGGYLDVGSKPMY
Regarding B6, the “Z score of condensed fraction” value was -0.7283.

B7: TCF15 (protein, UniProt Q12870 1-199, looked up)
Transcription factor 15: MAFALLRPVGAHVLYPDVRLLSEDEENRSESDASDQSFGCCEGPEAARRGPGPGGGRRAGGGGGAGPVVVVRQRQAANARERDRTQSVNTAFTALRTLIPTEPVDRKLSKIETVRLASSYIAHLANVLLLGDSADDGQPCFRAAGSAKGAVPAAADGGRQPRSICTFCLSNQRKGGGRRDLGGSCLKVRGVAPLRGPRR
B7: the “Z score of condensed fraction” value amounted to 0.7138.

B8: TCF24 (protein, UniProt Q7RTU0 1-167, looked up)
Transcription factor 24: MDRGRPAGSPLSASAEPAPLAAAIRDSRPGRTGPGPAGPGGGSRSGSGRPAAANAARERSRVQTLRHAFLELQRTLPSVPPDTKLSKLDVLLLATTYIAHLTRSLQDDAEAPADAGLGALRGDGYLHPVKKWPMRSRLYIGATGQFLKHSVSGEKTNHDNTPTDSQP
Consider B8, for which the “Z score of condensed fraction” value is reported as -0.9879.

B9: TCFL5 (protein, UniProt Q9UL49 1-500, looked up)
Transcription factor-like 5 …: MSGPGPREPPPEAGAAGGEAAVEGAGGGDAALGEPGLSFTTTDLSLVEMTEVEYTQLQHILCSHMEAAADGELETRLNSALLAAAGPGAGAGGFAAGGQGGAAPVYPVLCPSALAADAPCLGHIDFQELRMMLLSEAGAAEKTSGGGDGARARADGAAKEGAGAAAAAAGPDGAPEARAKPAVRVRLEDRFNSIPAEPPPAPRGPEPPEPGGALNNLVTLIRHPSELMNVPLQQQNKCTALVKNKTAATTTALQFTYPLFTTNACSTSGNSNLSQTQSSSNSCSVLEAAKHQDIGLPRAFSFCYQQEIESTKQTLGSRNKVLPEQVWIKVGEAALCKQALKRNRSRMRQLDTNVERRALGEIQNVGEGATATQGAWQSSESSQANLGEQAQSGPQGGRSQRRERHNRMERDRRRRIRICCDELNLLVPFCNAETDKATTLQWTTAFLKYIQERHGDSLKKEFESVFCGKTGRRLKLTRPDSLVTCPAQGSLQSSPSMEIK
With B9, the “Z score of condensed fraction” value is listed as -0.869.

B10: TCF25 (protein, UniProt Q9BQ70 1-676, looked up)
Ribosome quality control …: MSRRALRRLRGEQRGQEPLGPGALHFDLRDDDDAEEEGPKRELGVRRPGGAGKEGVRVNNRFELINIDDLEDDPVVNGERSGCALTDAVAPGNKGRGQRGNTESKTDGDDTETVPSEQSHASGKLRKKKKKQKNKKSSTGEASENGLEDIDRILERIEDSTGLNRPGPAPLSSRKHVLYVEHRHLNPDTELKRYFGARAILGEQRPRQRQRVYPKCTWLTTPKSTWPRYSKPGLSMRLLESKKGLSFFAFEHSEEYQQAQHKFLVAVESMEPNNIVVLLQTSPYHVDSLLQLSDACRFQEDQEMARDLVERALYSMECAFHPLFSLTSGACRLDYRRPENRSFYLALYKQMSFLEKRGCPRTALEYCKLILSLEPDEDPLCMLLLIDHLALRARNYEYLIRLFQEWEAHRNLSQLPNFAFSVPLAYFLLSQQTDLPECEQSSARQKASLLIQQALTMFPGVLLPLLESCSVRPDASVSSHRFFGPNAEISQPPALSQLVNLYLGRSHFLWKEPATMSWLEENVHEVLQAVDAGDPAVEACENRRKVLYQRAPRNIHRHVILSEIKEAVAALPPDVTTQSVMGFDPLPPSDTIYSYVRPERLSPISHGNTIALFFRSLLPNYTMEGERPEEGVAGGLNRNQGLNRLMLAVRDMMANFHLNDLEAPHEDDAEGEGEWD
Take B10: the “Z score of condensed fraction” value is given as 2.145.

B11: TCEB2 (protein, UniProt Q15370 1-118, looked up)
Elongin-B: MDVFLMIRRHKTTIFTDAKESSTVFELKRIVEGILKRPPDEQRLYKDDQLLDDGKTLGECGFTSQTARPQAPATVGLAFRADDTFEALCIEPFSSPPELPDVMKPQDSGSSANEQAVQ
B11: the “Z score of condensed fraction” value was -0.4277.

B12: TCF21 (protein, UniProt O43680 1-179, looked up)
Transcription factor 21: MSTGSLSDVEDLQEVEMLECDGLKMDSNKEFVTSNESTEESSNCENGSPQKGRGGLGKRRKAPTKKSPLSGVSQEGKQVQRNAANARERARMRVLSKAFSRLKTTLPWVPPDTKLSKLDTLRLASSYIAHLRQILANDKYENGYIHPVNLTWPFMVAGKPESDLKEVVTASRLCGTTAS
Take B12: the “Z score of condensed fraction” value was 0.06751.

B13: TBX20 (protein, UniProt Q9UMR3 1-447, looked up)
T-box transcription factor …: MEFTASPKPQLSSRANAFSIAALMSSGGSKEKEATENTIKPLEQFVEKSSCAQPLGELTSLDAHGEFGGGSGSSPSSSSLCTEPLIPTTPIIPSEEMAKIACSLETKELWDKFHELGTEMIITKSGRRMFPTIRVSFSGVDPEAKYIVLMDIVPVDNKRYRYAYHRSSWLVAGKADPPLPARLYVHPDSPFTGEQLLKQMVSFEKVKLTNNELDQHGHIILNSMHKYQPRVHIIKKKDHTASLLNLKSEEFRTFIFPETVFTAVTAYQNQLITKLKIDSNPFAKGFRDSSRLTDIERESVESLIQKHSYARSPIRTYGGEEDVLGDESQTTPNRGSAFTTSDNLSLSSWVSSSSSFPGFQHPQSLTALGTSTASIATPIPHPIQGSLPPYSRLGMPLTPSAIASSMQGSGPTFPSFHMPRYHHYFQQGPYAAIQGLRHSSAVMTPFV
Regarding B13, the “Z score of condensed fraction” value amounted to 0.6837.

B14: TBX19 (protein, UniProt Q99ME7 1-446, looked up)
T-box transcription factor …: MSELATQKAGEGTVSRLLNVVESELQAGREKGDPTEKQLQIILEDAPLWQRFKEVTNEMIVTKNGRRMFPVLKISVTGLDPNAMYSLLLDFVRTDSHRWKYVNGEWVPAGKPEVSSHSCVYIHPDSPNFGAHWMKAPISFSKVKLTNKLNGGGQIMLNSLHKYEPQVHIVRVGGAHRMVMNCSFPETQFIAVTAYQNEEITALKIKYNPFAKAFLDAKERNHLKDVPEAISESQHVTYSHLGGWILSNPDGVCTAANSNYQYATPLPLPAPHTHHGCEHYAGLRGHRQAPYPSAYMHRNHSPSVNLIESSSNNLQVFSGPDSWTSLSSTPHASILSVPHSNGPINPGPSPYPCLWTISNGGGGPVASGSEVHASTSGTILLGNPAVTSPSSLLPTQATTSAGVEVLGEPSLTSIAVSTWTAVASHPLPGWGGPGGAGRHSSSSLDS
As for B14, the “Z score of condensed fraction” value is listed as 1.015.

The record behind these values is PMC11574045, “A cofactor-induced repressive type of transcription factor condensation can be induced by synthetic peptides to suppress tumorigenesis” (The EMBO Journal, 2024).
